1 molecule from patent publication US20220332804A1 (CSL INNOVATION, published 2022) can be followed below.

What all share (assay): SPR, KD relative to WT C2;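 note: biacore SPR at 37 °C, anti-C2 mAbs captured via immobilised goat anti-human IgG, C2 alanine or serine surface mutants as analytes, 1:1 model fitted, double-referenced sensograms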
The target of test [1] is T1, human C2 R688A (human, UniProt P06681 21-752).
T1 sequence: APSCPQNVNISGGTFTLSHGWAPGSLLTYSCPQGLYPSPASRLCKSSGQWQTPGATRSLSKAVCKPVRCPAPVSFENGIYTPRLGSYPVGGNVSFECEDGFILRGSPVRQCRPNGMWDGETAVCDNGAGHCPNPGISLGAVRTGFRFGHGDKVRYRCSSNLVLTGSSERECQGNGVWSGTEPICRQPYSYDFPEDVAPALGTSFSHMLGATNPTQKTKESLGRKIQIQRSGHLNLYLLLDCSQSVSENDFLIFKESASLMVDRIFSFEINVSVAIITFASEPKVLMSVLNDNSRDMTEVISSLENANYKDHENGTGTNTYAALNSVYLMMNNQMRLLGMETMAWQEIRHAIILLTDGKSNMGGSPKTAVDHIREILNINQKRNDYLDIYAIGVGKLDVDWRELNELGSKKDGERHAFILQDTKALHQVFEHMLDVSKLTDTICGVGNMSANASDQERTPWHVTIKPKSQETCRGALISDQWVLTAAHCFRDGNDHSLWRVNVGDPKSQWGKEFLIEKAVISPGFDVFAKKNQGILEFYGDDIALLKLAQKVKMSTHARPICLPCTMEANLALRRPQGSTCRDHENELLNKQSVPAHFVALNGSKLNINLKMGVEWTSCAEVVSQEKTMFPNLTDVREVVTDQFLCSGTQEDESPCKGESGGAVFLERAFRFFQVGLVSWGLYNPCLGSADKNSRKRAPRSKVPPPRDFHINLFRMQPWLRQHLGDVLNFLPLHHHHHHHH

Test [2] addresses T2, human C2 R510A (human, UniProt P06681 21-752).
T2 sequence: T1 sequence with R490A, A668R

For test [3], the target named is T3, human C2 K721A (human, UniProt P06681 21-752).
T3 sequence: T1 sequence with A668R, K701A

Test [4] concerns the target T4, human C2 D561A (human, UniProt P06681 21-752).
T4 sequence: T1 sequence with D541A, A668R

Changes are numbered by the printed parent chain.

B1: RF16-226 (antibody, human IgG4 S228P, lambda)
heavy: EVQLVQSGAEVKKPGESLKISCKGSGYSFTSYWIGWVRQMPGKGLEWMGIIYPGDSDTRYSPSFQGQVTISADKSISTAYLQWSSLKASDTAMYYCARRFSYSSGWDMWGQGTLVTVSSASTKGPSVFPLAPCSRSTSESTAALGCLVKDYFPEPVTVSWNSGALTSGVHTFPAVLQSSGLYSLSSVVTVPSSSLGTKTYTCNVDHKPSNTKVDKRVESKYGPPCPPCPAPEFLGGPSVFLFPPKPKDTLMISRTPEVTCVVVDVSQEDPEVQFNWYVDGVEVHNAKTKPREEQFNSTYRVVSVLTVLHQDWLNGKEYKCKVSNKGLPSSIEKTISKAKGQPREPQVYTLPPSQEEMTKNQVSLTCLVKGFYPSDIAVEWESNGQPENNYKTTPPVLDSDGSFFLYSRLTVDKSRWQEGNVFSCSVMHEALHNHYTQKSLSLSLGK
light: SYELTQPPSVSVSPGQTARITCSGDALTSKYVAWYQQKSGLAPLLVIYEDTRRPSGIPAKFSGSSSGSVATLTISGAHGDDEADYYCYSTDASGHQRVFGGGTKLTVLSQPKAAPSVTLFPPSSEELQANKATLVCLISDFYPGAVTVAWKADGSPVKAGVETTKPSKQSNNKYAASSYLSLTPEQWKSHRSYSCQVTHEGSTVEKTVAPTECS
notes: pH-dependent anti-C2 antibody from a phage display library; also called WT
For the molecule B1, the Fold diff in test [1] was 3 fold; in test [2], 11 fold; in test [3], 10 fold; in test [4], 10 fold.
